Publication PMC9226498, “Structural basis for interaction between CLAMP and MSL2 proteins involved in the specific recruitment of the dosage compensation complex in Drosophila” (Nucleic Acids Research, 2022)

Target: T1, CLAMP^40–153 (Drosophila melanogaster, UniProt Q9V9N4 40-153)
T1 construct: Tags and their cleavage are told only in the Supplementary Information; source: E. coli BL21 (DE3), purified (IMAC, anion-exchange chromatography)
T1 sequence (looked up): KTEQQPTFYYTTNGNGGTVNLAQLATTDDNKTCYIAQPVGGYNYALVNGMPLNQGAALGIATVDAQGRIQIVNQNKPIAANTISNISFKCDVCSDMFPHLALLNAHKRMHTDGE
Test: NMR titration; stable isotope-labeled MSL2 618–655 titrated with unlabeled CLAMP 40–153 (or CLAMP 41–153 L139A/K146E); chemical shift perturbation, fast exchange; 25°C
Settings: both partners purified

Kd: 200 ± 100 µM
B1: MSL2^618–655 (domain or fragment, Drosophila melanogaster, UniProt P50534 618-655, looked up)
chain: ISLVPLNNLQQSQHPLVLVQNEKGEYQGFNIFQGSKPL
notes: Unlabelled or 13C,15N-labelled for NMR; Tags and their cleavage are told only in the Supplementary Information; also called MSL2 peptide; source: E. coli BL21 (DE3), purified (IMAC, anion-exchange chromatography)
